Laboratory results from patent US10919943B2, “Mutant proteins enabling agrochemical control of plant gene expression” (The Regents of the University of California, priority 2016, dated 2021).

System: HAB1
Experiment: Yeast two hybrid of pBD-PYR1 site saturation mutants with pACT-HAB1 on 10 μM ABA, β-galactosidase staining
Type: cell-based, Arabidopsis
Set-up: key: x: Mutations in PYR1 that disrupt ABA-induced binding to PYR1 to HAB1
Settings: S. cerevisiae Y190, 10 μM ABA; dead = lack of visible staining in comparison to wild type control
Text: To systematically identify mutations in PYR1 that disrupt its binding to HAB1, we utilized a collection of saturating mutations that contain all possible single amino acid substitutions in 24 conserved interface residues involved in binding HAB1, which was previously constructed for the purpose of engineering constitutively active ABA receptor variants (Mosquna et al., 2011). The interface residues previously mutagenized in this collection are the following: H60, F61, I62, K63, I84, S85, G86, L87, P88, A89, H115, R116, L117, P148, G150, N151, D154, D155, T156, M158, F159, T162, L166, K170. This set was made by mutagenizing a pBD-PYR1 template that encodes a GAL4-DNA binding domain fusion to PYR1, which can be used to assess receptor-HAB1 binding in S. cerevisiae strains co-transformed with pACT-HAB1, which expresses a GAL4 activation domain fusion to HAB1. Mutant pBD-PYR1 clones from the collection are maintained in S. cerevisiae strain Y190 co-transformed with pACT-HAB1. The test strains were spotted onto agar plates containing synthetic dextrose dropout media lacking leucine and tryptophan [SD (-Leu, -Trp)] medium supplemented with 10 μM ABA. After incubating the test plates at 30° C. for two days, colonies were chloroform lysed and stained to reveal […] expression levels and “dead” mutants were defined by lack of visible staining in comparison to a wild type control. This effort defined 237 mutations that disrupt ABA-induced binding of PYR1 to HAB1 (Table 1). Premade yeast drop out supplements (Clontech) were utilized in this and other examples for media preparation, amino acids and other standard chemicals were purchased from Sigma-Aldrich (USA). The naturally occurring (+)-ABA isomer was used in all experiments and purchased from Biosynth Ag (Switzerland).

Molecule	Mutations in PYR1 that disrupt ABA-induced binding to PYR1 to HAB1
H115S: PYR1 mutant (protein, UniProt O49686 1-191, looked up, variant H115S) Abscisic acid receptor PYR1: MPSELTPEERSELKNSIAEFHTYQLDPGSCSSLHAQRIHAPPELVWSIVRRFDKPQTYKHFIKSCSVEQNFEMRVGCTRDVIVISGLPANTSTERLDILDDERRVTGFSIIGGESRLTNYKSVTTVHRFEKENRIWTVVLESYVVDMPEGNSEDDTRMFADTVVKLNLQKLATVAEAMARNSGDGSGSQVT	x
H115D: PYR1 mutant (protein, UniProt O49686 1-191, looked up, variant H115D) Abscisic acid receptor PYR1: MPSELTPEERSELKNSIAEFHTYQLDPGSCSSLHAQRIHAPPELVWSIVRRFDKPQTYKHFIKSCSVEQNFEMRVGCTRDVIVISGLPANTSTERLDILDDERRVTGFSIIGGEDRLTNYKSVTTVHRFEKENRIWTVVLESYVVDMPEGNSEDDTRMFADTVVKLNLQKLATVAEAMARNSGDGSGSQVT	x
R116A: PYR1 mutant (protein, UniProt O49686 1-191, looked up, variant R116A) Abscisic acid receptor PYR1: MPSELTPEERSELKNSIAEFHTYQLDPGSCSSLHAQRIHAPPELVWSIVRRFDKPQTYKHFIKSCSVEQNFEMRVGCTRDVIVISGLPANTSTERLDILDDERRVTGFSIIGGEHALTNYKSVTTVHRFEKENRIWTVVLESYVVDMPEGNSEDDTRMFADTVVKLNLQKLATVAEAMARNSGDGSGSQVT	x
R116T: PYR1 mutant (protein, UniProt O49686 1-191, looked up, variant R116T) Abscisic acid receptor PYR1: MPSELTPEERSELKNSIAEFHTYQLDPGSCSSLHAQRIHAPPELVWSIVRRFDKPQTYKHFIKSCSVEQNFEMRVGCTRDVIVISGLPANTSTERLDILDDERRVTGFSIIGGEHTLTNYKSVTTVHRFEKENRIWTVVLESYVVDMPEGNSEDDTRMFADTVVKLNLQKLATVAEAMARNSGDGSGSQVT	x
H115W: PYR1 mutant (protein, UniProt O49686 1-191, looked up, variant H115W) Abscisic acid receptor PYR1: MPSELTPEERSELKNSIAEFHTYQLDPGSCSSLHAQRIHAPPELVWSIVRRFDKPQTYKHFIKSCSVEQNFEMRVGCTRDVIVISGLPANTSTERLDILDDERRVTGFSIIGGEWRLTNYKSVTTVHRFEKENRIWTVVLESYVVDMPEGNSEDDTRMFADTVVKLNLQKLATVAEAMARNSGDGSGSQVT	x
R116V: PYR1 mutant (protein, UniProt O49686 1-191, looked up, variant R116V) Abscisic acid receptor PYR1: MPSELTPEERSELKNSIAEFHTYQLDPGSCSSLHAQRIHAPPELVWSIVRRFDKPQTYKHFIKSCSVEQNFEMRVGCTRDVIVISGLPANTSTERLDILDDERRVTGFSIIGGEHVLTNYKSVTTVHRFEKENRIWTVVLESYVVDMPEGNSEDDTRMFADTVVKLNLQKLATVAEAMARNSGDGSGSQVT	x
H115C: PYR1 mutant (protein, UniProt O49686 1-191, looked up, variant H115C) Abscisic acid receptor PYR1: MPSELTPEERSELKNSIAEFHTYQLDPGSCSSLHAQRIHAPPELVWSIVRRFDKPQTYKHFIKSCSVEQNFEMRVGCTRDVIVISGLPANTSTERLDILDDERRVTGFSIIGGECRLTNYKSVTTVHRFEKENRIWTVVLESYVVDMPEGNSEDDTRMFADTVVKLNLQKLATVAEAMARNSGDGSGSQVT	x
R116S: PYR1 mutant (protein, UniProt O49686 1-191, looked up, variant R116S) Abscisic acid receptor PYR1: MPSELTPEERSELKNSIAEFHTYQLDPGSCSSLHAQRIHAPPELVWSIVRRFDKPQTYKHFIKSCSVEQNFEMRVGCTRDVIVISGLPANTSTERLDILDDERRVTGFSIIGGEHSLTNYKSVTTVHRFEKENRIWTVVLESYVVDMPEGNSEDDTRMFADTVVKLNLQKLATVAEAMARNSGDGSGSQVT	x
H115F: PYR1 mutant (protein, UniProt O49686 1-191, looked up, variant H115F) Abscisic acid receptor PYR1: MPSELTPEERSELKNSIAEFHTYQLDPGSCSSLHAQRIHAPPELVWSIVRRFDKPQTYKHFIKSCSVEQNFEMRVGCTRDVIVISGLPANTSTERLDILDDERRVTGFSIIGGEFRLTNYKSVTTVHRFEKENRIWTVVLESYVVDMPEGNSEDDTRMFADTVVKLNLQKLATVAEAMARNSGDGSGSQVT	x
R116W: PYR1 mutant (protein, UniProt O49686 1-191, looked up, variant R116W) Abscisic acid receptor PYR1: MPSELTPEERSELKNSIAEFHTYQLDPGSCSSLHAQRIHAPPELVWSIVRRFDKPQTYKHFIKSCSVEQNFEMRVGCTRDVIVISGLPANTSTERLDILDDERRVTGFSIIGGEHWLTNYKSVTTVHRFEKENRIWTVVLESYVVDMPEGNSEDDTRMFADTVVKLNLQKLATVAEAMARNSGDGSGSQVT	x
H115I: PYR1 mutant (protein, UniProt O49686 1-191, looked up, variant H115I) Abscisic acid receptor PYR1: MPSELTPEERSELKNSIAEFHTYQLDPGSCSSLHAQRIHAPPELVWSIVRRFDKPQTYKHFIKSCSVEQNFEMRVGCTRDVIVISGLPANTSTERLDILDDERRVTGFSIIGGEIRLTNYKSVTTVHRFEKENRIWTVVLESYVVDMPEGNSEDDTRMFADTVVKLNLQKLATVAEAMARNSGDGSGSQVT	x
H115E: PYR1 mutant (protein, UniProt O49686 1-191, looked up, variant H115E) Abscisic acid receptor PYR1: MPSELTPEERSELKNSIAEFHTYQLDPGSCSSLHAQRIHAPPELVWSIVRRFDKPQTYKHFIKSCSVEQNFEMRVGCTRDVIVISGLPANTSTERLDILDDERRVTGFSIIGGEERLTNYKSVTTVHRFEKENRIWTVVLESYVVDMPEGNSEDDTRMFADTVVKLNLQKLATVAEAMARNSGDGSGSQVT	x
H115K: PYR1 mutant (protein, UniProt O49686 1-191, looked up, variant H115K) Abscisic acid receptor PYR1: MPSELTPEERSELKNSIAEFHTYQLDPGSCSSLHAQRIHAPPELVWSIVRRFDKPQTYKHFIKSCSVEQNFEMRVGCTRDVIVISGLPANTSTERLDILDDERRVTGFSIIGGEKRLTNYKSVTTVHRFEKENRIWTVVLESYVVDMPEGNSEDDTRMFADTVVKLNLQKLATVAEAMARNSGDGSGSQVT	x
H115V: PYR1 mutant (protein, UniProt O49686 1-191, looked up, variant H115V) Abscisic acid receptor PYR1: MPSELTPEERSELKNSIAEFHTYQLDPGSCSSLHAQRIHAPPELVWSIVRRFDKPQTYKHFIKSCSVEQNFEMRVGCTRDVIVISGLPANTSTERLDILDDERRVTGFSIIGGEVRLTNYKSVTTVHRFEKENRIWTVVLESYVVDMPEGNSEDDTRMFADTVVKLNLQKLATVAEAMARNSGDGSGSQVT	x
H115G: PYR1 mutant (protein, UniProt O49686 1-191, looked up, variant H115G) Abscisic acid receptor PYR1: MPSELTPEERSELKNSIAEFHTYQLDPGSCSSLHAQRIHAPPELVWSIVRRFDKPQTYKHFIKSCSVEQNFEMRVGCTRDVIVISGLPANTSTERLDILDDERRVTGFSIIGGEGRLTNYKSVTTVHRFEKENRIWTVVLESYVVDMPEGNSEDDTRMFADTVVKLNLQKLATVAEAMARNSGDGSGSQVT	x
H115T: PYR1 mutant (protein, UniProt O49686 1-191, looked up, variant H115T) Abscisic acid receptor PYR1: MPSELTPEERSELKNSIAEFHTYQLDPGSCSSLHAQRIHAPPELVWSIVRRFDKPQTYKHFIKSCSVEQNFEMRVGCTRDVIVISGLPANTSTERLDILDDERRVTGFSIIGGETRLTNYKSVTTVHRFEKENRIWTVVLESYVVDMPEGNSEDDTRMFADTVVKLNLQKLATVAEAMARNSGDGSGSQVT	x
R116P: PYR1 mutant (protein, UniProt O49686 1-191, looked up, variant R116P) Abscisic acid receptor PYR1: MPSELTPEERSELKNSIAEFHTYQLDPGSCSSLHAQRIHAPPELVWSIVRRFDKPQTYKHFIKSCSVEQNFEMRVGCTRDVIVISGLPANTSTERLDILDDERRVTGFSIIGGEHPLTNYKSVTTVHRFEKENRIWTVVLESYVVDMPEGNSEDDTRMFADTVVKLNLQKLATVAEAMARNSGDGSGSQVT	x
R116C: PYR1 mutant (protein, UniProt O49686 1-191, looked up, variant R116C) Abscisic acid receptor PYR1: MPSELTPEERSELKNSIAEFHTYQLDPGSCSSLHAQRIHAPPELVWSIVRRFDKPQTYKHFIKSCSVEQNFEMRVGCTRDVIVISGLPANTSTERLDILDDERRVTGFSIIGGEHCLTNYKSVTTVHRFEKENRIWTVVLESYVVDMPEGNSEDDTRMFADTVVKLNLQKLATVAEAMARNSGDGSGSQVT	x
H115Y: PYR1 mutant (protein, UniProt O49686 1-191, looked up, variant H115Y) Abscisic acid receptor PYR1: MPSELTPEERSELKNSIAEFHTYQLDPGSCSSLHAQRIHAPPELVWSIVRRFDKPQTYKHFIKSCSVEQNFEMRVGCTRDVIVISGLPANTSTERLDILDDERRVTGFSIIGGEYRLTNYKSVTTVHRFEKENRIWTVVLESYVVDMPEGNSEDDTRMFADTVVKLNLQKLATVAEAMARNSGDGSGSQVT	x
